Test results as given in article PMC7752801.

Target: streptolysin O (SLO) isolated from group A Streptococcus (Streptococcus pyogenes (group A Streptococcus)) (UniProt P0C0I3)
Assay: other fluorescence titration; SLO at 2.0×10^−8 M mixed with HSA from 0 M to 4.0×10^−8 M; fluorescence between 300 nm and 400 nm, excitation 280; apparent Kd from Eq. 1

UniProt P0C0I3, sequence (P0C0I3 34-571): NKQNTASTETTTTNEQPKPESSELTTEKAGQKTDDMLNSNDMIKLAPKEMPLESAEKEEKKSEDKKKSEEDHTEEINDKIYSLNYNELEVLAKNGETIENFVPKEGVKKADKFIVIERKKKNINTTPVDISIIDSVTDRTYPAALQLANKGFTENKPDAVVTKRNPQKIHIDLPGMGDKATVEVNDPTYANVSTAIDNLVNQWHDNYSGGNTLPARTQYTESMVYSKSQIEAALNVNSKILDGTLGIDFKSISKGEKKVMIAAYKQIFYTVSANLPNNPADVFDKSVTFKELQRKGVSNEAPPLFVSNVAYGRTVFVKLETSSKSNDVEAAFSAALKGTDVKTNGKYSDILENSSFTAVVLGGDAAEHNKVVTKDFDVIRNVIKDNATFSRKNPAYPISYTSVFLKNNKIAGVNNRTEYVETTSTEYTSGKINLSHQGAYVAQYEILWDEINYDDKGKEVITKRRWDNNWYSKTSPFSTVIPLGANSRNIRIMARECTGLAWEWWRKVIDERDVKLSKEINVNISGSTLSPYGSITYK

L305A/F374A 6×His-tag-HSA (double mutant Leu305Ala/Phe374Ala) (natural protein)
Kd: 7.3 nM
